Results published in US20140363416.

Legend:
[1] = test system: GST-ATF2 fusion protein (Cell Signaling)
[2] = molecular target: His/TF-tagged-XBP1s (recombinant XBP1s fusion protein purified from E. coli) (UniProt O35426)

Substance: activated recombinant p38α MAPK (Cell Signaling)
- in vitro kinase assay, phosphorylation of the control substrate [1]: activated recombinant p38 MAPK is fully functional and phosphorylates ATF2
- in vitro kinase assay, immunoblotting with phospho-specific antibodies for p-XBP1s^Thr48 and p-XBP1s^Ser61 [2]: p38 MAPK directly phosphorylates XBP on Thr48 and Ser61 residues in the in vitro kinase assay
- in vitro kinase assay, incorporated 32P (phosphorylation) by autoradiography [2]: Incubation of XBP1s with activated recombinant p38 MAPK significantly increased phosphorylation of XBP1s
